In paper PMC5787697, “Transcriptome-wide identification of the RNA-binding landscape of the chromatin-associated protein PARP1 reveals functions in RNA biogenesis”:

Experiments:
[1] = biological target: T1, PARP1-ΔZn1ΔZn2 (human, UniProt P09874 216-1014); experiment: competition EMSA; vs N1 in same reaction; 25 mM Tris pH 7.5, 75 mM NaCl, 50 mM arginine, 0.1 mM TCEP, 0.1 ug/ul BSA, room temperature 30 min; 0.05 uM probe, 0-2.5 uM protein; native 10% PAGE in TBE; conditions: protein: recombinant; tags: His; chain copies: 2; label: 32P; single strand
[2] = biological target: T2, PARP1-ΔCAT (human, UniProt P09874 1-662); experiment: as above; conditions: protein: recombinant; tags: His; chain copies: 2; label: 32P; single strand
[3] = biological target: T3, PARP1-FL (human, UniProt P09874 1-1014); experiment: as above; conditions: protein: recombinant; tags: His; label: 32P; single strand
[4] = biological target: T2, PARP1-ΔCAT; experiment: EMSA; monomer-equivalent K, n=2.77±0.13; 25 mM Tris pH 7.5, 75 mM NaCl, 50 mM arginine, 0.1 mM TCEP, 0.1 ug/ul BSA, room temperature 30 min; 0.05 uM probe, 0-2.5 uM protein; native 10% PAGE in TBE; conditions: protein: recombinant; tags: His; chain copies: 2; label: 32P; single strand
[5] = biological target: T3, PARP1-FL; experiment: EMSA; monomer-equivalent K, n=2.17±0.15; 25 mM Tris pH 7.5, 75 mM NaCl, 50 mM arginine, 0.1 mM TCEP, 0.1 ug/ul BSA, room temperature 30 min; 0.05 uM probe, 0-2.5 uM protein; native 10% PAGE in TBE; conditions: protein: recombinant; tags: His; chain copies: 2; label: 32P; single strand
[6] = biological target: T1, PARP1-ΔZn1ΔZn2; experiment: EMSA; monomer-equivalent K, n=2.16±0.19; 25 mM Tris pH 7.5, 75 mM NaCl, 50 mM arginine, 0.1 mM TCEP, 0.1 ug/ul BSA, room temperature 30 min; 0.05 uM probe, 0-2.5 uM protein; native 10% PAGE in TBE; conditions: protein: recombinant; tags: His; chain copies: 2; label: 32P; single strand
[7] = biological target: T1, PARP1-ΔZn1ΔZn2; experiment: EMSA; monomer-equivalent K, n=2.04±0.15; 25 mM Tris pH 7.5, 75 mM NaCl, 50 mM arginine, 0.1 mM TCEP, 0.1 ug/ul BSA, room temperature 30 min; 0.05 uM probe, 0-2.5 uM protein; native 10% PAGE in TBE; conditions: protein: recombinant; tags: His; chain copies: 2; label: 32P; single strand
[8] = biological target: T2, PARP1-ΔCAT; experiment: EMSA; monomer-equivalent K, n=2.04±0.13; 25 mM Tris pH 7.5, 75 mM NaCl, 50 mM arginine, 0.1 mM TCEP, 0.1 ug/ul BSA, room temperature 30 min; 0.05 uM probe, 0-2.5 uM protein; native 10% PAGE in TBE; conditions: protein: recombinant; tags: His; chain copies: 2; label: 32P; single strand
[9] = biological target: T3, PARP1-FL; experiment: EMSA; monomer-equivalent K, n=1.70±0.14; 25 mM Tris pH 7.5, 75 mM NaCl, 50 mM arginine, 0.1 mM TCEP, 0.1 ug/ul BSA, room temperature 30 min; 0.05 uM probe, 0-2.5 uM protein; native 10% PAGE in TBE; conditions: protein: recombinant; tags: His; chain copies: 2; label: 32P; single strand

T1 sequence (P09874 216-1014, stated change not applied): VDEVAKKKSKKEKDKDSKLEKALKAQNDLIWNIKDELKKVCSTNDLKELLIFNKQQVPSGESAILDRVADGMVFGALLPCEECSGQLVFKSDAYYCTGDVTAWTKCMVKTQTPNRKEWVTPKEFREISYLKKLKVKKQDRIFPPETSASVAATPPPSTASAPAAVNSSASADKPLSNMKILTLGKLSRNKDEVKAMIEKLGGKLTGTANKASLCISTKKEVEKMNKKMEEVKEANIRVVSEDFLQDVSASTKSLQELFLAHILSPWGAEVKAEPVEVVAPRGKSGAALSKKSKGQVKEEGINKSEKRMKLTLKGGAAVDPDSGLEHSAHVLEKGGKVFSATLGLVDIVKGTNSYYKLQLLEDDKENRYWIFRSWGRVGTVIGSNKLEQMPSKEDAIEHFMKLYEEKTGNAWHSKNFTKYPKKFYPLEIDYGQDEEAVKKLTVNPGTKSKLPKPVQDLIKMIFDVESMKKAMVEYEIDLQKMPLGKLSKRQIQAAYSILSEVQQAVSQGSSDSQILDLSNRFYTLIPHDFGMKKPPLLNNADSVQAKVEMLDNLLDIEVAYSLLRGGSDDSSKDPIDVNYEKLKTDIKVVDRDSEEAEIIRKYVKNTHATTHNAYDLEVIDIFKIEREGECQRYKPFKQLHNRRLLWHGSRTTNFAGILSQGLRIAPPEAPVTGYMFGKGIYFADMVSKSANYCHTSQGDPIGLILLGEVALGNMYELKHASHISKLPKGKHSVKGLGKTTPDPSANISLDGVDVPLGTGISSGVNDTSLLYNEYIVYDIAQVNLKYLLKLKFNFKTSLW
T3 sequence (P09874 whole entry): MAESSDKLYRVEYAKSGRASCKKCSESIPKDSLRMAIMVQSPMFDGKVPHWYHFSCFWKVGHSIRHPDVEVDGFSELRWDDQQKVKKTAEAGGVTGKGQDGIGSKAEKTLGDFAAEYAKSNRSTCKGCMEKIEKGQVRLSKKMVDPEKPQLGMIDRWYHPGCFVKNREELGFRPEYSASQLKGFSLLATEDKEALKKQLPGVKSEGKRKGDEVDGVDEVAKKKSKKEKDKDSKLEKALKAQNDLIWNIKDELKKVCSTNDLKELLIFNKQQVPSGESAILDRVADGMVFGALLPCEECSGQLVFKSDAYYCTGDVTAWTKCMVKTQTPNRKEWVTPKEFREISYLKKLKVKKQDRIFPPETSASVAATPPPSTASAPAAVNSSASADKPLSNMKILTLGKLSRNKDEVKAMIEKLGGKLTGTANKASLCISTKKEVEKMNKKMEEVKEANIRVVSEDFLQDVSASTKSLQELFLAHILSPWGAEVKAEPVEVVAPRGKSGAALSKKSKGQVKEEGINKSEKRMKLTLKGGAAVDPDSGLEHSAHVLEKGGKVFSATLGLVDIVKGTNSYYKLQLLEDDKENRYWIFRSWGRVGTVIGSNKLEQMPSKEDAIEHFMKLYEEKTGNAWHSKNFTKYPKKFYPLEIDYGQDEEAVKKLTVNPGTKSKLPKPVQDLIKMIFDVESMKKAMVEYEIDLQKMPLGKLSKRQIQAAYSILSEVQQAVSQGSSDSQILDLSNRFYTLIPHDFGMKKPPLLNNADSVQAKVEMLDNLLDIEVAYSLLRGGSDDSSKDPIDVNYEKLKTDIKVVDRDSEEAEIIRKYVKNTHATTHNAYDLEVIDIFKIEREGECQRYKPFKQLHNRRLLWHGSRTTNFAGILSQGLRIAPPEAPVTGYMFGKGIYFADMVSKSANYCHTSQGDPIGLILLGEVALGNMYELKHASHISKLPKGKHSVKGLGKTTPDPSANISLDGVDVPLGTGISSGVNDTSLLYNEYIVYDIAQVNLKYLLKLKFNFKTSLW
T2 sequence (P09874 1-662, stated change not applied): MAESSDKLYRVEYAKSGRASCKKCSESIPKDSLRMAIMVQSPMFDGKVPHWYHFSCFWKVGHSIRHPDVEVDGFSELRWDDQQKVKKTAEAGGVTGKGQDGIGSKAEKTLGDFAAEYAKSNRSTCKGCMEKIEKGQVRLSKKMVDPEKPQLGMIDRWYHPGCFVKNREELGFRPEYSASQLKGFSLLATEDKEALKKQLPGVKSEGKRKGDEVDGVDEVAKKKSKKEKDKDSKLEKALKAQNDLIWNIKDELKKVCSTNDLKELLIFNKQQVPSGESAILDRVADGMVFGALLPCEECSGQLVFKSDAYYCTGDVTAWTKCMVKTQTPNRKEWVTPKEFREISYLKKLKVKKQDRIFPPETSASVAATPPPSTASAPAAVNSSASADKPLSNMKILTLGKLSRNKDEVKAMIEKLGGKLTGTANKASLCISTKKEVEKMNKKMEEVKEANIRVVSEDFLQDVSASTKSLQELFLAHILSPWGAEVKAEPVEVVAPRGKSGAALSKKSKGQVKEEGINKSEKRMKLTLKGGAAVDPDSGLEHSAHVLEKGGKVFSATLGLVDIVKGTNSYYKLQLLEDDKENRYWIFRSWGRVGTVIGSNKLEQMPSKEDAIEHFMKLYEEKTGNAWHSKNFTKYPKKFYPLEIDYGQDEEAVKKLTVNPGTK

With TAGGCACCGGCATCTTGAC (ssDNA) [19-mer ssDNA] the binding signal [1] was 0.0153 ± 0.021 KDNA/KRNA, the binding signal [2] was 15.7 ± 3.9 KDNA/KRNA and the binding signal [3] was 25.3 ± 3 KDNA/KRNA.

In the case of CGUACGCGGAAUAGUUUAAACUGU (ssRNA) [24-mer ssRNA], the Ka [4] is reported as 2.91e+06 M⁻¹, the Ka [5] is reported as 2.88e+06 M⁻¹ and the Ka [6] is reported as 1.91e+06 M⁻¹.

Binder CCGUACGCGGGUUUAAACGA (ssRNA) [20-mer ssRNA] has a Ka [7] of 1.13e+06 M⁻¹, a Ka [8] of 770000 M⁻¹ and a Ka [9] of 2.43e+06 M⁻¹.
